Results on four molecules are retold here after paper PMC3777401.

In series [1] the target is T1, FLAG-CTCF-6xHis (UniProt Q61164 1-736).
T1 sequence: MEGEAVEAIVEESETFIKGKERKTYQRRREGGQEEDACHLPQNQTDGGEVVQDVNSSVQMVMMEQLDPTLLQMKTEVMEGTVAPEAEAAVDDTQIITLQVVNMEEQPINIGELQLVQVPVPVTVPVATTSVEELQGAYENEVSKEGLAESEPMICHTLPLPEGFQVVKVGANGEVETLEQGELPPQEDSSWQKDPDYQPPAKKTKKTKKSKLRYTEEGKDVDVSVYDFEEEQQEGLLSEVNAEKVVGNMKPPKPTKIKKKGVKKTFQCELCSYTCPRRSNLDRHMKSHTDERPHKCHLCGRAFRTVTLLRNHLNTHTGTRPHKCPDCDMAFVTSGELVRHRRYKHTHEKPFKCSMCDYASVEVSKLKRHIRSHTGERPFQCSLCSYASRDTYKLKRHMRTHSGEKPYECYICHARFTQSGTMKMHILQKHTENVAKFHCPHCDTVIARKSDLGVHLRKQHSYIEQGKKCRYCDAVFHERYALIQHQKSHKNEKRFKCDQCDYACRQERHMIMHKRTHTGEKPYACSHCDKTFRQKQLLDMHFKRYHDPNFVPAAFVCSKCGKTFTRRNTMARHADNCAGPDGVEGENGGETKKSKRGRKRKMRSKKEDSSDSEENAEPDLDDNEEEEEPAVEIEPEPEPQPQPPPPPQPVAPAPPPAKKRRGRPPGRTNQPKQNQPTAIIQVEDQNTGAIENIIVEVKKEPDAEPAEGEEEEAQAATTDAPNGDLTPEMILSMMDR
Briefly: competition.

In series [2] the target is T1, FLAG-CTCF-6xHis. Briefly: EMSA. (In general: Mobility shift assays separate free from complexed probe on a gel.)

B1: P2 (dsDNA)
DNA 1: GAATGTGTCTAAGATGGCGGAAGTCATGTGACCTGCCCTCTAGTGGTTTCTTTCAGTGATTTTTTTTTTGGCGGGCTTTA
DNA 2: TAAAGCCCGCCAAAAAAAAAATCACTGAAAGAAACCACTAGAGGGCAGGTCACATGACTTCCGCCATCTTAGACACATTC
Turning to B1, the binding result with FLAG-CTCF-6xHis [1] is on record as “binds”.

B2: P1 (dsDNA)
DNA 1: TTGTGGCCACTCCTCTTCTGGTCTCTCCGCCTTCAGCGCCGCGGATCAGTTAAAGGCGTGCAACGGCTTGCTCCAGCCAT
DNA 2: ATGGCTGGAGCAAGCCGTTGCACGCCTTTAACTGATCCGCGGCGCTGAAGGCGGAGAGACCAGAAGAGGAGTGGCCACAA
Turning to B2, the binding result in the series with FLAG-CTCF-6xHis [2] is “no binding”.

B3: Xist_5' (dsDNA)
DNA 1: TTTGGCTTCAGATGCCTTGGAAAGATTCATGCTGCCACCTGCTGGTTTATTCAGTCTGTGTGCATCATTTATTTACTTGT
DNA 2: ACAAGTAAATAAATGATGCACACAGACTGAATAAACCAGCAGGTGGCAGCATGAATCTTTCCAAGGCATCTGAAGCCAAA
Regarding B3, the binding result with FLAG-CTCF-6xHis [2] is on record as “binds”.

B4: RS14C (dsDNA)
DNA 1: CTATGCATTAGGTTTGGGTGTTATACCCGTGTAGGCCAGCAGAGGGTGTCGGATCCCAAGGAAACCAAGTTACAGACGCC
DNA 2: GGCGTCTGTAACTTGGTTTCCTTGGGATCCGACACCCTCTGCTGGCCTACACGGGTATAACACCCAAACCTAATGCATAG
Turning to B4, the binding result with FLAG-CTCF-6xHis [2] was “binds”.
